Data set [1] deals with T1, mutated cdc2 peptide with Phe-15 substituted for Tyr-15 (IEKIGEGTFGVVYK).
T1 sequence: IEKIGEGTFGVVYK

Data set [2] concerns the target cdc2 peptide (amino acids 7 to 20; …). The data set is described as follows: cell-based or functional assay.

Turning to p56/p53^lyn tyrosine kinase, the “phosphorylation of the mutated cdc2 peptide (Tyr-15 to Phe-15) by anti-Lyn immune complexes” value in data set [1] is “there was little phosphorylation of the mutated cdc2 peptide with anti-Lyn complexes from control or MMC-treated cells”.
“p56/p53^lyn tyrosine kinase (from UniProt P07948 2-512) (enzyme)” yielded a phosphorylation of the cdc2 peptide by anti-Lyn immune complexes from MMC-treated cells against control cells in data set [2] of 2 fold.
